In article PMC10881151:

How the values were obtained:
[1] = target: Drp1-S600D (phosphomimetic mutant of human DRP1 isoform 3) (human); experiment: co-sedimentation
[2] = target: Drp1-S579D (phosphomimetic mutant of human DRP1 isoform 3) (human); experiment: co-sedimentation

- percent less Drp1 and Mff in the pellets than for Drp1-WT [1]: 50%
- percent less Drp1 and Mff in the pellets than for Drp1-WT [2]: 50%
Substance: MFF-∆TM (truncated human MFF isoform 4) (from UniProt Q9GZY8-4 1-218) (domain or fragment)
